Several values for one entry are separate records, joined by “and”; a condition that tells them apart may be missing. Identical values can stand only once.
Key:
[1] = tested on: U937 cells treated with neuraminidase; assay: Pre-complexed Siglec-Fc staining of cells treated with Neu-S or Neu-A; assay type: cell-based
[2] = tested on: human peripheral blood monocytes; assay: CD33-Fc binding to monocytes treated with Neu-S or Neu-A; assay type: cell-based; details: Figure 6c; WT (no neuraminidase)
Experimental: Strep-Tactin-AF647 (0.55 μg/mL, 0.57 pmol), streptavidin (Biolegend), or anti-human igG1 (Biolegend) was added to Siglec supernatant (50 μL) or purified Siglec and allowed to sit at 4 °C for 15 min. After, the pre-complexed solution was added to cells in a 96-well U-bottom plate for 30 min at 4 °C. After, 200 μL of flow buffer (HBSS, 0.1% BSA, 5 mM EDTA) was added and the plate was spun down at 300 rcf for 5 min. The cells were resuspended in 200 μL of flow buffer and processed through the flow cytometer.
For human splenocytes, the sample was homogenized in media through a 40 µm filter (Corning) under sterile conditions. Samples were centrifuged at 300 rcf for 5 min. The resulting pellet from the spleen sample and whole human blood were treated with RBC lysis buffer (7 min) and centrifuged at 300 rcf and the RBC lysis was repeated twice more until no RBC remained in the pellet. […]
Flow cytometry was performed on a BD LSRFortessa™ X-20 cell analyzer using BD FACSDiva Software Version 8.0.1 and data was processed using FlowJo LLC. […] The live, single cell populations were gated out with two gates to obtain the median fluorescence intensity (MFI), which indicates binding of the Siglec-Fc-secondary complex to the cell surface. Control cells that were incubated with Strep-Tactin-AF647 (0.55 μg/mL, 0.57 pmol) was used to determine the baseline fluorescence. […]

B1: CD33-Fc R119A (protein, UniProt P20138 18-259, looked up, variant R119A)
extracellular domain: DPNFWLQVQESVTVQEGLCVLVPCTFFHPIPYYDKNSPVHGYWFREGAIISRDSPVATNKLDQEVQEETQGRFRLLGDPSRNNCSLSIVDARRRDNGSYFFAMERGSTKYSYKSPQLSVHVTDLTHRPKILIPGTLEPGHSKNLTCSVSWACEQGTPPIFSWLSAAPTSLGPRTTHSSVLIITPRPQDHGTNLTCQVKFAGAGVTTERTIQLNVTYVPQNPTTGIFPGDGSGKQETRAGVVH
modifications: extracellular domain fused to human IgG1 Fc
- CD33-Fc Binding ([1]; Figure 6a, +Neu-A): 106 and 114
- CD33-Fc Binding ([1]; Figure 6a, +Neu-S): 92.4 and 95.2
- CD33-Fc Binding ([1]; Figure 6a, WT cells (no neuraminidase)): 77.3 and 79
- CD33-Fc Binding ([1]; Figure 6b, +Neu-A): 74 and 74.9
- CD33-Fc Binding ([1]; Figure 6b, +Neu-S): 73 and 72.1 and 68.7
- CD33-Fc Binding ([1]; Figure 6b, WT cells (no neuraminidase)): 77.3 and 79
- CD33-Fc Binding [2]: 42.3 and 56.8 and 61

From paper PMC7547722, “A versatile soluble siglec scaffold for sensitive and quantitative detection of glycan ligands” (Nature Communications, 2020)
